According to US20220356245A1 (FORTY SEVEN, published 2022):
Read-outs that look alike come from different tables or passages of the source. Each block holds one binder with its values, some of them ahead of it.

How the values were obtained:
[1] = molecular target: T1, human CD47 (hCD47) expressed on cells (human, UniProt Q08722 19-323); experiment: flow cytometry, hCD47-CHO cells, competition with His-hSIRPα
T1 construct: Transfected CHO cells or endogenous CD47 of human cells; also called CHO-hCD47; CD47 on Raji cells
Protocol: Human CD47-transfected cells (3×10⁵ cells/well of 96-well plate) were first incubated at +4° C. for 30 minutes with serial dilutions of anti-CD47 antibodies or isotype control antibody (in mIgG2a or mIgG1 format). […] The percentage inhibition was plotted against antibody concentration and the IC50 values were calculated using a nonlinear regression analysis model of the GraphPad Prism software.

[2] = molecular target: T2, mouse CD47 (mCD47) expressed on CHO cells (mouse, UniProt Q61735 19-303); experiment: flow cytometry, CHO-mCD47 cells
T2 construct: whole, on cells; also called CHO-mCD47
T2 sequence (looked up): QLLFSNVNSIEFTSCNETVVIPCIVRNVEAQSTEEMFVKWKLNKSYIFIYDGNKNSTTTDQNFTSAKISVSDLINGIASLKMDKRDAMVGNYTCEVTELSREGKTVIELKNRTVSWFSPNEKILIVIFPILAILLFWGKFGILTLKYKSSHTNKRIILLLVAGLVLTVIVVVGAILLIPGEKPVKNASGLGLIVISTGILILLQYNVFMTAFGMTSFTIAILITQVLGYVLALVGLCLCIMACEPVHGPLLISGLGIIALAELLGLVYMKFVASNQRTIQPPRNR

[3] = molecular target: T1, human CD47 (hCD47) expressed on cells; experiment: cell-based or functional assay
[4] = molecular target: T1, human CD47 (hCD47) expressed on cells; experiment: flow cytometry, Raji cells
Protocol: (§1) Raji cells (ATCC-CLL-86; 2×10⁵ cells/well of 96-well plate) were first incubated at +4° C. for 30 minutes with serial dilutions of anti-CD47 antibodies or control isotype antibody (in mIgG2a or mIgG1 format). The cells were then washed and incubated for 30 minutes at +4° C. with a PE-conjugated F(ab)′2 goat anti-mouse IgG antibody ( 1/100 dilution, Beckman Coulter). After washings, the fluorescence of the cells was analyzed by flow cytometry on an Accuri-C6 flow cytometer (BD Biosciences).
(§2) The delta of MFI, representing the difference between the intensity measured with the tested antibody and the intensity in the absence of antibody, was calculated for each antibody concentration and the values were plotted against the antibody concentrations. The EC50 values were then calculated by using a nonlinear regression analysis model of the GraphPad Prism software.

[5] = molecular target: T3, hu-sCD47-6His; extracellular domain of human CD47 antigen with 6His-tag (human); experiment: SPR Biacore T200, antibody captured, hCD47-his analyte;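 further: antibodies captured on anti-IgG (Fc) CM5 chip, five sequential 10 min antigen injections at rising concentrations, reference flow cell and antigen-free cycle as controls, 1:1 model fit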
T3 construct: also called hCD47-his; soluble hCD47
Description: (§3) An anti-human or anti-mouse IgG (Fc) was first immobilized on the surface of Serie S Sensor Chips CM5 using the human or mouse antibody capture and amine coupling kits, following the manufacturer's instructions (GE Healthcare). […] The mouse, chimerized or humanized antibodies to be tested were then captured onto the appropriate anti-mouse or anti-human IgG surface in all flow cells except flow cell 1 used as control, at concentration and contact time adjusted so that ˜300 RU were captured on the surface. Binding kinetics were studied by passing increasing concentrations of hCD47-his in a series of five 10 minute injections through all flow cells at a rate of 30 μL/min. […] Following the final injection, buffer was passed across each flow cell for 60 minutes (mouse) or 30 minutes (human) to monitor the dissociation of bound antigen. Regeneration of the binding surface was carried out at the end of the cycle by flowing 3 M MgCl₂ for 60 s at 20 μL/min followed by 10 mM glycine-HCl, pH 1.7 for 180 s at 10 μl/min (for human) or by flowing 10 mM glycine-HCl, ph 1.7 for 360 s at 10 μl/min (for mouse). A second cycle with the same antibodies but no antigen was run as a control. Kinetics binding constants were estimated by non-linear fitting of the sensogram data to the 1:1 binding model provided by the Biacore T200 evaluation software.

[6] = molecular target: T3, hu-sCD47-6His; extracellular domain of …; experiment: SPR Biacore
Description: as §3

[7] = molecular target: T3, hu-sCD47-6His; extracellular domain of …; experiment: ELISA, one-site binding saturation fit, glycosylated hCD47
Protocol: (§4) The equilibrium binding constant values were calculated by using the binding saturation/one-site binding model of the GraphPad Prism software (mean +/− SD of triplicates).

[8] = molecular target: T1, human CD47 (hCD47) expressed on cells; experiment: flow cytometry, Raji cells, competition with hSIRPα
[9] = molecular target: T1, human CD47 (hCD47) expressed on cells; experiment: flow cytometry, Raji cells; remark: listed apart in the source
[10] = molecular target: T3, hu-sCD47-6His; extracellular domain of …; experiment: SPR Biacore; head read as x 10^-4
Description: as §3

[11] = molecular target: T4, N-deglycosylated soluble hCD47-His (PNGase treated) (human, N-glycans removed with PNGase); experiment: ELISA; against glycosylated hCD47-His
T4 construct: also called deglycosylated-hCD47; N-Deglycosylated hCD47-His
Protocol: (§5) The EC50 and EC95 values were calculated by using the non-linear regression/log (antibody) versus response (four parameters) model of the GraphPad Prism software.

[12] = molecular target: T1, human CD47 (hCD47) expressed on cells; experiment: flow cytometry on Raji cells, hIgG4 format, delta MFI
[13] = molecular target: T1, human CD47 (hCD47) expressed on cells; experiment: as above; remark: listed apart in the source
[14] = molecular target: T4, N-deglycosylated soluble hCD47-His …; experiment: ELISA, coated N-deglycosylated hCD47-His
[15] = molecular target: T1, human CD47 (hCD47) expressed on cells; experiment: flow cytometry on Raji cells, hIgG4 format, delta MFI; remark: listed apart in the source
[16] = molecular target: T1, human CD47 (hCD47) expressed on cells; experiment: flow cytometry, Raji cells, competition with hSIRPα; remark: listed apart in the source
[17] = molecular target: T3, hu-sCD47-6His; extracellular domain of …; experiment: ELISA, coated glycosylated hCD47-His
Protocol: as §5

[18] = molecular target: T1, human CD47 (hCD47) expressed on cells; experiment: flow cytometry on Raji cells, hIgG4 format: inhibition of hSIRPα binding to hCD47
[19] = molecular target: T1, human CD47 (hCD47) expressed on cells; experiment: as above; remark: listed apart in the source
[20] = molecular target: T1, human CD47 (hCD47) expressed on cells; experiment: flow cytometry on Raji cells, hIgG4 format, delta MFI; remark: listed apart in the source
[21] = molecular target: T1, human CD47 (hCD47) expressed on cells; experiment: flow cytometry on Raji cells, hIgG4 format: inhibition of hSIRPα binding to hCD47; remark: listed apart in the source
[22] = molecular target: T1, human CD47 (hCD47) expressed on cells; experiment: flow cytometry, Raji cells; remark: listed apart in the source
[23] = molecular target: T1, human CD47 (hCD47) expressed on cells; experiment: flow cytometry on Raji cells, hIgG4 format, delta MFI; remark: listed apart in the source
[24] = molecular target: T1, human CD47 (hCD47) expressed on cells; experiment: flow cytometry on Raji cells, hIgG4 format: inhibition of hSIRPα binding to hCD47; remark: listed apart in the source
[25] = molecular target: T3, hu-sCD47-6His; extracellular domain of …; experiment: ELISA, one-site binding saturation fit, glycosylated hCD47; remark: listed apart in the source
Protocol: (§6) The Bmax values were calculated by using the binding saturation/one-site binding model of the GraphPad Prism software (mean +/− SD of triplicates).

[26] = molecular target: T1, human CD47 (hCD47) expressed on cells; experiment: flow cytometry on Raji cells, hIgG4 format: inhibition of hSIRPα binding to hCD47; remark: listed apart in the source
[27] = molecular target: T4, N-deglycosylated soluble hCD47-His …; experiment: ELISA, one-site binding saturation fit, deglycosylated hCD47
Protocol: as §6

[28] = molecular target: T3, hu-sCD47-6His; extracellular domain of …; experiment: SPR Biacore; remark: listed apart in the source
Description: as §3

[29] = molecular target: T4, N-deglycosylated soluble hCD47-His …; experiment: ELISA, one-site binding saturation fit, deglycosylated hCD47; remark: listed apart in the source
Protocol: as §4

[30] = molecular target: T2, mouse CD47 (mCD47) expressed on CHO …; experiment: flow cytometry, CHO-mCD47 cells; remark: listed apart in the source
[31] = molecular target: T1, human CD47 (hCD47) expressed on cells; experiment: flow cytometry, Raji cells; upper end tied to candidate 19 by Table 6
Protocol: as §1, §2

[32] = molecular target: T1, human CD47 (hCD47) expressed on cells; experiment: flow cytometry, Raji cells, competition with His-hSIRPα
Protocol: (§7) The percent inhibition was plotted against antibody concentration and the IC50 values were calculated by using a nonlinear regression analysis model of the GraphPad Prism software.

[33] = molecular target: T1, human CD47 (hCD47) expressed on cells; experiment: flow cytometry, Raji cells, competition with His-hSIRPα; upper end tied to candidate 19 by Table 7
Protocol: as §7

[34] = molecular target: T1, human CD47 (hCD47) expressed on cells; experiment: flow cytometry, Raji cells; lower end tied to candidate 15 by Table 6
Protocol: as §1, §2

[35] = molecular target: T1, human CD47 (hCD47) expressed on cells; experiment: flow cytometry, Raji cells, competition with His-hSIRPα; lower end tied to candidates 14 and 15 by Table 7
Protocol: as §7

IC50 [1]: 0.44 µg/mL
Phagocytic index, Raji cells and human macrophages, antibody at 0.125 µg/mL [3]: 119 Raji cells ingested per 100 macrophages
EC50 [4]: 0.096 µg/mL
Kd [5]: 4.16 nM
koff [5]: 0.000418 s⁻¹
kon [5]: 101000 M⁻¹ s⁻¹
B1: Candidate 20 (VL008-AL18-14G4-14K1), mouse IgG (antibody, V domains shown)
VH: QVQLKQSGAELVRPGASVKLSCKASGYSFTDYYINWVKQRPGQGLEWIARIYPGIGNTYYNKKFKGKATLTAEKSSSTAYMQLNSLTSEDSAVYFCARGHYGRGMDYWGQGTSVTVSS
VL: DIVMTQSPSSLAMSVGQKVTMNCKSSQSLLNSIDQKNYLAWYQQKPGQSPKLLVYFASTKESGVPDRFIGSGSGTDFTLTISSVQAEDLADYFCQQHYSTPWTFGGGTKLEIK
notes: Recombinant mouse IgG2a or mIgG1 format, by assay; also called antibody 20
binding result [2]: no binding (tested: 7.3 µg/mL highest concentration)

Kd [6]: 3.22 nM
kon [6]: 169000 M⁻¹ s⁻¹
equilibrium binding constant [7]: 27.3 pM
IC50 [8]: 0.138 µg/mL
EC50 [9]: 0.0751 µg/mL
koff [10]: 0.000505 s⁻¹
EC50 ratio Deglycosylated/Glycosylated [11]: 1.7 ratio
EC95 ratio Deglycosylated/Glycosylated [11]: 5 ratio
binding result [2]: no binding
EC50 (read off the curve) [12]: ~0.1 µg/mL
EC50 (read off the curve) [13]: ~0.1 µg/mL
EC50 [14]: 0.0474 nM
EC95 [14]: 3.33 nM
EC50 (read off the curve) [15]: ~0.1 µg/mL
IC50 [16]: 0.11 µg/mL
EC50 [17]: 0.028 nM
EC95 [17]: 0.667 nM
IC50 (read off the curve) [18]: ~0.2 µg/mL
IC50 (read off the curve) [19]: ~0.2 µg/mL
EC50 (read off the curve) [20]: ~0.1 µg/mL
IC50 (read off the curve) [21]: ~0.2 µg/mL
EC50 [22]: 0.15 µg/mL
EC50 (read off the curve) [23]: ~0.1 µg/mL
IC50 (read off the curve) [24]: ~0.2 µg/mL
Bmax [25]: 2.9 OD value
IC50 (read off the curve) [26]: ~0.2 µg/mL
Bmax2 [27]: 2.2 OD value
Kd [28]: 2.48 nM
koff [28]: 0.000543 s⁻¹
kon [28]: 225000 M⁻¹ s⁻¹
equilibrium binding constant [29]: 38.8 pM
B2: hIgG4 chimeric candidate 20 (mouse VH0/VL0, human Fcγ4-S228P and human Kappa backbone) (antibody, V domains shown)
VH: QVQLKQSGAELVRPGASVKLSCKASGYSFTDYYINWVKQRPGQGLEWIARIYPGIGNTYYNKKFKGKATLTAEKSSSTAYMQLNSLTSEDSAVYFCARGHYGRGMDYWGQGTSVTVSS
VL: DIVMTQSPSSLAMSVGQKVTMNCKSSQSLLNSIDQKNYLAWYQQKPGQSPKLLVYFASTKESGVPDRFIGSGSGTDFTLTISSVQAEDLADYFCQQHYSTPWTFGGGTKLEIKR
notes: hIgG4-S228P/kappa; also called Chim; 20; Chim 20

IC50 [1]: 0.858 µg/mL
Phagocytic index, Raji cells and human macrophages, antibody at 0.125 µg/mL [3]: 73.9 Raji cells ingested per 100 macrophages
EC50 [31]: 1.1 nM
EC50 [4]: 0.165 µg/mL
Kd [5]: 2.25 nM
koff [5]: 0.000176 s⁻¹
kon [5]: 79000 M⁻¹ s⁻¹
B3: Candidate 19 (VL008-AL17-7G1-7K6), mouse IgG (antibody, V domains shown)
VH: QVQLQQSGPELVKPGASVKISCKASVYTFTDYYINWVKQRPGQGLEWVGWIFPGSGLTYYNKKFKGKATLTVDKSSSTAYMLLSSLTSEDSAVYFCARPYYGSRWDYAMDYWGQGTSVTVSS
VL: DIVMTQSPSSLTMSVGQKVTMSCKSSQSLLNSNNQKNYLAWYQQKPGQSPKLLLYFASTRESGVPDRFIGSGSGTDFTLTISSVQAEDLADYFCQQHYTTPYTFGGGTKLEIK
notes: Recombinant mouse IgG2a or mIgG1 format, by assay
binding result [30]: no binding (tested: 7.3 µg/mL highest concentration)

IC50 [32]: 0.369 µg/mL
IC50 [33]: 2.46 nM
B4: Candidate 19, chimeric hIgG format (hIgG1 or hIgG4) (antibody, V domains shown)
VH: QVQLQQSGPELVKPGASVKISCKASVYTFTDYYINWVKQRPGQGLEWVGWIFPGSGLTYYNKKFKGKATLTVDKSSSTAYMLLSSLTSEDSAVYFCARPYYGSRWDYAMDYWGQGTSVTVSS
VL: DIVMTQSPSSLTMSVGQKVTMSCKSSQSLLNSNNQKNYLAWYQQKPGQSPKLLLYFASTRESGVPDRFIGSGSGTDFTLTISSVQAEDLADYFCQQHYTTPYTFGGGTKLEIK
notes: also called Candidate 19 (hIgG format)

EC50 [34]: 0.2 nM
IC50 [1]: 0.605 µg/mL
Phagocytic index, Raji cells and human macrophages, antibody at 0.125 µg/mL [3]: 74.4 Raji cells ingested per 100 macrophages
EC50 [4]: 0.031 µg/mL
Kd [5]: 4.24 nM
koff [5]: 0.00239 s⁻¹
kon [5]: 565000 M⁻¹ s⁻¹
B5: Candidate 15 (VT008-AL6-18G1-18K21), mouse IgG (antibody, V domains shown)
VH: QVQLQQPGAELVKPGTSVKLSCKASGYTFINYWIHWVKQRPGRGLEWIGRIDPNTVDAKYNEKFKSKATLTVDKPSSIAYMQLSSLTSEDSAVYYCSRGGYTMDYWGQGTSVTVSS
VL: DVVMTQTPLSLPVSLGDQASISCRSSQSLVHSNGNTYLHWYLQKPGQSPTLLIYKVSNRFSGVPDRFSGSGSGTDFTLKISRVEAEDLGIYFCFQSTHVPWTFGGGTKLEIK
notes: as for B3

IC50 [32]: 0.021 µg/mL
IC50 [35]: 0.14 nM
B6: Candidate 15, chimeric hIgG format (hIgG1 or hIgG4) (antibody, V domains shown)
VH: QVQLQQPGAELVKPGTSVKLSCKASGYTFINYWIHWVKQRPGRGLEWIGRIDPNTVDAKYNEKFKSKATLTVDKPSSIAYMQLSSLTSEDSAVYYCSRGGYTMDYWGQGTSVTVSS
VL: DVVMTQTPLSLPVSLGDQASISCRSSQSLVHSNGNTYLHWYLQKPGQSPTLLIYKVSNRFSGVPDRFSGSGSGTDFTLKISRVEAEDLGIYFCFQSTHVPWTFGGGTKLEIK
notes: also called Candidate 15 (hIgG format)

IC50 [32]: 0.021 µg/mL
IC50 [35]: 0.14 nM
B7: Candidate 14, chimeric hIgG format (hIgG1 or hIgG4) (antibody, V domains shown)
VH: QVQLQQPGAELVKPGASLRVSCKASGYTFTNYWMYWVRQRPGRGLEWIGWIDPNSGGTKYNEKFKSKATLTVDKPSSTAYMQLSSLTSEDSAVYNCARGGYTMDYWGQGTSVTVSS
VL: DVVMTQTPLSLPVSLGDQASISCRASQSLVHSNGNTYLHWYLQKPGQSPKLLIYKVSNRFSGVPDRFSGSGSGTDFTLKISRVEAEDLGVYFCSQSTHVPLTFGAGTKLELK
notes: also called Candidate 14 (hIgG format)
